B1: RIPK4 (parent)
chain: AAWQGHLPIVKLLAKQPGVSVNAQ

Variants of: B1
Experiment: protein stability index of a GFP-peptide fusion (GPS, HEK-293T) (PSI 1-6); higher = more stable
Conditions: c terminus: a fixed tail appended
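Also: lentivirally expressed fusions sorted by FACS into six bins by GFP to DsRed ratio, PSI derived from sequencing read proportions per bin multiplied by bin number.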

Protein stability index, by site and new letter:
A23: I 1.72 | L 2.01 | S 2.52 | F 1.41 | H 1.79 | D 2.65 | N 2.92 | Q 3.54 | R 2.64 | G 2.54 | E 2.92 | K 2.6 | P 2.03 | M 1.74 | C 2.89 | T 2.4
G5: R 2.36 | M 2.37 | T 2.69 | I 1.81 | Y 2.89 | P 2.56 | K 1.97 | V 2.58 | S 2.2 | Q 2.44 | L 1.52 | E 2.83 | H 1.86 | D 2.94 | N 3.7 | W 1.71 | C 2.69 | A 2.02
I9: P 3.45 | A 3.49 | G 2.14 | V 2.64 | F 2.36 | C 3.1 | N 1.79 | T 3.02 | Q 2.78 | Y 2.45 | W 2.63 | H 2.47 | S 2.83 | E 2.55
L12: A 3.04 | E 4.1 | W 1.33 | M 1.88 | N 3.59 | S 3.75 | T 3.25 | Y 3.14 | P 2.71 | H 3.33 | V 2.35 | D 4.08 | G 3.67 | C 2.75 | Q 3.02 | F 2.45 | R 3.56 | I 2.4
H6: I 2.65 | N 2.2 | L 1.45 | Q 2.76 | D 2.98 | T 2.32 | A 2.54 | E 2.81 | Y 1.1 | P 2.67 | V 4 | S 1.84 | M 1.86 | F 1.41
Q16: S 2.56 | D 3.25 | T 2.5 | N 2.95 | R 2.26 | W 1.55 | C 2 | H 2.97 | Y 1.97 | A 2.54 | G 2.93 | P 2.27 | I 1.42 | M 2.22 | K 2.77 | E 3.78 | L 2 | V 2.14
Q4: Y 1.51 | T 2.65 | E 2.45 | C 3.15 | L 1.32 | P 3.34 | M 1.94 | H 3.18 | F 1.24 | I 1.34 | A 1.93 | V 1.7 | S 2.18 | G 2.56 | D 2.62 | N 2.06 | W 1.61 | R 1.89
V21: S 2.81 | Q 2.3 | R 2.75 | D 3.05 | T 2.18 | N 2.99 | I 2.43 | K 2.8 | Y 1.89 | A 2.62 | E 2.92 | C 1.54 | G 1.6 | M 1.95 | F 2.23 | L 2.51 | H 2.45 | P 2.3
V19: C 2.66 | W 1.61 | S 3.22 | F 1.7 | P 3.08 | N 2.61 | L 2.04 | H 2.65 | T 2.46 | R 3.3 | Y 1.75 | G 1.85 | M 2.3 | K 2.73 | D 3.35
L13: C 2.86 | T 2.16 | Y 2.94 | K 2.86 | I 2.82 | A 2.9 | P 3.55 | Q 4.64 | V 2.88 | W 3.24 | E 4.25 | N 3.81 | H 2.5 | F 2.39 | D 3.82 | R 3.09 | S 2.85
V10: I 1.92 | C 2.38 | T 2.78 | W 3.69 | H 2.34 | L 1.61 | P 2.75 | R 2.37 | M 2.64 | A 2.33 | Q 2.56 | N 2.1 | Y 3.72 | F 2.16 | G 2.36 | D 2.74 | S 2.72 | E 3.71 | K 2.23
K11: T 2.1 | C 3.38 | A 1.76 | M 2.13 | Q 2.35 | V 1.84 | R 1.72 | E 3.62 | I 1.4 | G 3 | P 3.07 | Y 1.94 | H 2.15 | N 2.4 | S 1.58
S20: R 2.97 | A 2.3 | Y 1.66 | L 1.76 | C 2.88 | I 2.33 | F 1.64 | K 1.96 | H 1.97 | P 2.05 | V 1.82 | E 2.79 | Q 2.35 | W 2.83 | D 2.55 | T 2.4 | G 2.63 | M 2.29
L7: C 2.21 | S 2.8 | M 2.33 | R 5.04 | Q 3.55 | Y 2.05 | I 2.76 | D 3.03 | A 2.1 | P 3.21 | W 1.81 | G 3.01 | N 3.36 | V 2.65 | T 2.29 | E 3.31 | F 2.71
K15: E 2.73 | Q 1.81 | N 3.56 | I 2.82 | T 2.88 | D 3.15 | W 2.04 | S 2.16 | R 2.06 | M 2.11 | H 2.43 | C 1.67 | P 1.28 | L 1.82 | G 2.58 | A 2.56 | F 2.26
A14: G 2.72 | N 3.07 | W 1.33 | I 1.67 | V 1.87 | M 2.07 | K 3.17 | C 1.33 | S 2.72 | E 2.56 | Q 2.14 | T 2.42 | H 2.13 | R 2.5 | F 1.57 | Y 2.09 | D 3.75 | P 3.28
P8: S 1.78 | F 3.42 | N 1.78 | D 2.25 | C 3.63 | A 1.63 | G 1.8 | K 1.07 | Q 1.85 | H 2.08
N22: G 1.98 | K 2.29 | F 1.55 | R 1.98 | Q 1.98 | M 2.61 | P 2.19 | H 2.37 | S 3.35 | D 2.48 | V 3.92 | C 1.89 | A 2.15 | T 2.58 | Y 1.39 | W 1.36 | L 2.06 | I 2.22
G18: S 2.54 | R 1.69 | N 2.07 | K 2.46 | F 1.51 | C 1.72 | L 2.07 | M 1.61 | V 1.92 | D 3.03 | H 2.55 | T 2.54 | W 1.36 | A 2.67 | I 2.01 | Y 2.08 | Q 2.53 | P 2.28
W3: V 2.49 | Y 2.42
P17: T 1.83 | C 1.92 | H 1.82 | G 2.22 | W 2.91 | M 2.5 | E 3.58 | D 2.15 | F 1.53 | Y 3.38 | L 2.58 | Q 2.37 | A 1.51 | N 2.54 | S 2.46 | K 2.45
